Where two headings read alike, the source gives them in different places.
Assays:
[1] = target: LILRB2 antigen of the ELISA of Table 5 (format not specified) (UniProt Q8N423 22-460, limits assumed); assay: ELISA, antibody titration
[2] = target: T1, human LILRB1 expressed on 293T cells (human, UniProt Q8NHL6 24-650); assay: flow cytometry on 293T transfectants, MFI
T1 construct: whole, on cells
Experimental: (§1) The cells were then immobilized with glutaraldehyde in the presence of 5% defatted milk at room temperature for 2 hours. An anti-LILRB2 antibody (5 μg/ml) was added to each well and incubated at room temperature for 1 hours. An Alex Flour®-labelled goat anti-mouse secondary antibody (1:2,000 dilution) was then added into each well and incubated at room temperature for 30′. The cells were washed twice with PBS after the staining. Fluorescence intensities (MFI) were measured.

[3] = target: T2, human LILRB3 expressed on 293T cells (human, UniProt O75022 24-631); assay: flow cytometry on 293T transfectants, MFI
T2 construct: whole, on cells
Experimental: as §1

[4] = target: T3, human LILRB2 expressed on cells (293T-LILRB2, CHO-K1-LILRB2) (human, UniProt Q8N423 22-597); assay: flow cytometry, 293T-LILRB2 cells
T3 construct: whole, on cells; the cell line is named under assay; also called HEK293T-LILRB2
Source text: The fluorescent signals were detected by flow cytometry.

[5] = target: T4, recombinant human LILRB2 protein (human, UniProt Q8N423 22-460, limits assumed); assay: ELISA, coated recombinant human LILRB2; parameters: unit not given here
T4 construct: also called recombinant LILRB2 protein
Experimental: This affinity maturation library was screened against human LILRB2 to identify antibodies having high binding affinity to LILRB2. Briefly, an ELISA plate was coated with 0.1 ug/well recombinant human LILRB2 protein. Serial diluted maturated h#2E1 antibodies were incubated in the LILRB2 coated plate for 2 hrs. The plate was washed and a secondary HRP-labeled anti-human IgG was then added to each well. After being incubated at room temperature for 1 hour, the colorimetric ELISA signals were developed by adding the TMB substrate and reaction was stopped by 1M H3PO4. Table 7 below provides binding activities of exemplary matured antibodies to recombinant LILRB2 protein.

[6] = target: T3, human LILRB2 expressed on cells …; assay: flow cytometry, His-HLA-A2 tetramer (competitor) bound to 293T-LILRB2 cells, relative to no antibody; parameters: concentration or dose not given beside the values
Experimental: Serial diluted h#2E1 antibodies were then added to the mixture and incubated at room temperature for another 45 minutes. […]

[7] = target: T3, human LILRB2 expressed on cells …; assay: flow cytometry, blockade of His-tagged HLA-G tetramer binding to 293T-LILRB2 cells; fit table under the graph
Experimental: (§2) Serial diluted humanized LILRB2 antibodies were then added to the mixture and incubated at room temperature for another 45 minutes. The binding of HLA-G/LILRB2 was detected afterwards using a secondary PE-labeled anti-His tag antibody via flow cytometry.

[8] = target: T3, human LILRB2 expressed on cells …; assay: as above; remark: listed apart in the source
Experimental: as §2

[9] = target: T5, LILRB3-His; assay: ELISA on recombinant His-tagged protein, OD450
T5 construct: also called His-tagged LILRB3; recombinant LILRB3 protein

T4 sequence (Q8N423 22-460 limits assumed): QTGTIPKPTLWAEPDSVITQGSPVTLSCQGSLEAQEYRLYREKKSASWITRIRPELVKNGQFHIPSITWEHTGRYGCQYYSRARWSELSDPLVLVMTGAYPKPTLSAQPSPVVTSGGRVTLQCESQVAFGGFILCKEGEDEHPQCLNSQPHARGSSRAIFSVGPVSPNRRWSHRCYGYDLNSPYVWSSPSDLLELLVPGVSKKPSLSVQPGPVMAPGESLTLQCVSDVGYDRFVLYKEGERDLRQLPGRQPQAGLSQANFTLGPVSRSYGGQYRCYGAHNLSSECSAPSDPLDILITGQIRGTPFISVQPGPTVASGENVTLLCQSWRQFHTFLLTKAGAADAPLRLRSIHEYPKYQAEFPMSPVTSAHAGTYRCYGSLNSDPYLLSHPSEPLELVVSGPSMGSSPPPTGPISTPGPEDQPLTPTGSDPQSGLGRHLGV
T3 sequence (Q8N423 22-597): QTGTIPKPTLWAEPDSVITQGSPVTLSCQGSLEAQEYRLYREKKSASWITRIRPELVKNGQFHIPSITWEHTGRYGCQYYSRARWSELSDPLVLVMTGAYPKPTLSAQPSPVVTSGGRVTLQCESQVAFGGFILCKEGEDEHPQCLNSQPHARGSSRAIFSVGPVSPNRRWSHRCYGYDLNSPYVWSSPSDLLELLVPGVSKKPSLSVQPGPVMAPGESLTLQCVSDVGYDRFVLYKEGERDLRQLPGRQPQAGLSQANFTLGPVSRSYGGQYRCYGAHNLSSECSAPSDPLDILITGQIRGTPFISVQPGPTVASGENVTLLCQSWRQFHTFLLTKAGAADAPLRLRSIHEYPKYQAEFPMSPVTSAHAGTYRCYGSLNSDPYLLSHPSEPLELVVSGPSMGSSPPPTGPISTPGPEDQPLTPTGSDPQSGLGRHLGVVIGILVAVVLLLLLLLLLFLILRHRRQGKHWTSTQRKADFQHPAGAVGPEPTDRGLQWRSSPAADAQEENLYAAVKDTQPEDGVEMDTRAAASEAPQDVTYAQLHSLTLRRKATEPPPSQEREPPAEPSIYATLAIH
LILRB2 antigen of the ELISA of Table 5 (format not specified), sequence (Q8N423 22-460 limits assumed): as the sequence (Q8N423 22-460 limits assumed) above
T1 sequence (Q8NHL6 24-650): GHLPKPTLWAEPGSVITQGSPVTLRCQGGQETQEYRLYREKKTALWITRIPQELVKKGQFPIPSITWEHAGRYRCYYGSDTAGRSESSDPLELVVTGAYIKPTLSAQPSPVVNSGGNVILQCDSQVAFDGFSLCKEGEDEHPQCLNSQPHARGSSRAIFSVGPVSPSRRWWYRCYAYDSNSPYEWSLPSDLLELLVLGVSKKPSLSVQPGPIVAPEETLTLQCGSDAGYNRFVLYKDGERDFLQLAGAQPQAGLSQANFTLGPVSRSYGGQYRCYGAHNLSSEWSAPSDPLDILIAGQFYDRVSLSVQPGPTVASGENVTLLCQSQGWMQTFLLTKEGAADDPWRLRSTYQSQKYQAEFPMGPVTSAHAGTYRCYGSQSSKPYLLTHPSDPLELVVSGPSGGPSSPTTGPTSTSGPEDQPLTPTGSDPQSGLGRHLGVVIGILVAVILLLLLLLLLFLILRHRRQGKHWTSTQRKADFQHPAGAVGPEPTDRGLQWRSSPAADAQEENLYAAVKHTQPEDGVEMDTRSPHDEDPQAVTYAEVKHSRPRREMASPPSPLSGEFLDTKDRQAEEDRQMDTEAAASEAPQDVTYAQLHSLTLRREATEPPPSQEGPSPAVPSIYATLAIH

| Binder | Kd [1] | binding result [2] | binding result [3] | Bmax [4] | Bmax [5] | % no Ab [6] | IC50 [7] | Span [7] | IC50 [8] | Span [8] | binding result [9] |
| --- | --- | --- | --- | --- | --- | --- | --- | --- | --- | --- | --- |
| Antibody 13C5 (antibody, V domains shown, Mouse hybridoma mAb purified from ascites) VH: QVQLKQSGPGLVQPSQSLSITCTVSGFSLTTFGVHWVRQSPGKGLEWLGVIWRGGSTDYNAAFMSRLSITKDNSKSQVFFKMNSLQADDTAIYYCAKNPYQYGSSHYYAMDYWGQGTSVTVSS VL: DIVMTQSPSSLSVSAGEKVTMSCKSSQSLLNSGNQKNYLAWYQQKPGQPPKLLIYGASTRESGVPDRFTGSGSGTVFTLTISSVQAEDLAVYYCQNDHILPFTFGSGTKLEIK | 0.314 nM | no binding (tested: 5 µg/ml) | no binding (tested: 5 µg/ml) | – | – | – | – | – | – | – | – |
| Antibody 2E1_FC3 (antibody, V domains shown) VH: EVQLVESGGGLVQPGGSLRLSCAVSGYSITSGYYWNWIRQAPGKGLEWVAYISYDGNTNYNPSLKNRFTISRDTSKNTFYLQMNSLRAEDTAVYYCAREESTMITTAWFAYWGQGTLVTVSS VL: DIQMTQSPSSLSASVGDRVTITCRASENIYSNLAWYQQKPGKAPKLLIYGATNLASGVPSRFSGSGSGTDYTLTISSLQPEDFATYYCQHFWDTPYTFGQGTKVEIK | – | – | – | 456000 | 1.29 | 52.1% | 0.122 nM | 9690 RFU | – | – | – |
| Antibody 2E1_GF1 (antibody, V domains shown) VH: EVQLVESGGGLVQPGGSLRLSCAVSGYSITSGYYWNWIRQAPGKGLEWVAYISYDGNNNYNPSLKNRFTISRDTSKNTFYLQMNSLRAEDTAVYYCAREESTMITTAWFAYWGQGTLVTVSS VL: DIQMTQSPSSLSASVGDRVTITCRASEVIYSNLAWYQQKPGKAPKLLIYGATNLASGVPSRFSGSGSGTDYTLTISSLQPEDFATYYCQHFWDTPYTFGQGTKVEIK | – | – | – | 706000 | 1.5 | 47.9% | – | – | 0.331 nM | 6980 RFU | – |
| Antibody 2E1_FH2 (antibody, V domains shown) VH: EVQLVESGGGLVQPGGSLRLSCAVSGYSITSGYYWNWIRQAPGKGLEWVASISYDGNNNYNPSLKNRFTISRDTSKNTFYLQMNSLRAEDTAVYYCAREESTMITTAWFAYWGQGTLVTVSS VL: DIQMTQSPSSLSASVGDRVTITCRASENIYSNLAWYQQKPGKAPKLLIYGATNLASGVPSRFSGSGSGTDYTLTISSLQPEDFATYYCQHFWDTPYTFGQGTKVEIK | – | – | – | 420000 | 0.989 | 51.5% | – | – | – | – | – |
| Antibody 2E1_GB1 (antibody, V domains shown) VH: EVQLVESGGGLVQPGGSLRLSCAVSGYSITSGYSWNWIRQAPGKGLEWVAYISYDGNNNYNPSLKNRFTISRDTSKNTFYLQMNSLRAEDTAVYYCAREESTMITTAWFAYWGQGTLVTVSS VL: DIQMTQSPSSLSASVGDRVTITCRASENIYSNLAWYQQKPGKAPKLLIYGATNLASGVPSRFSGSGSGTDYTLTISSLQPEDFATYYCQHFWDTPYTFGQGTKVEIK | – | – | – | 637000 | 1.01 | 50.9% | – | – | – | – | – |
| Antibody 2E1_GB11 (antibody, V domains shown) VH: EVQLVESGGGLVQPGGSLRLSCAVSGYSITSGYYWNWIRQAPGKGLEWVAYISYDGNNNYNPSLKNRFTISRDTSKNTFYLQMNSLRAEDTAVYYCAREESTMITTAWFAYWGQGTLVTVSS VL: DIQMTQSPSSLSASVGDRVTITCRASENIYSNLAWYQQKPGKAPKLLIYGATNLALGVPSRFSGSGSGTDYTLTISSLQPEDFATYYCQHFWDTPYTFGQGTKVEIK | – | – | – | 627000 | 1.16 | 50.1% | – | – | 0.59 nM | 8170 RFU | – |
| Antibody 2E1_FH9 (antibody, V domains shown) VH: EVQLVESGGGLVQPGGSLRLSCAVSGYSITSGYYWNWIRQAPGKGLEWVAYISYDGNNLYNPSLKNRFTISRDTSKNTFYLQMNSLRAEDTAVYYCAREESTMITTAWFAYWGQGTLVTVSS VL: DIQMTQSPSSLSASVGDRVTITCRASENIYSNLAWYQQKPGKAPKLLIYGATNLASGVPSRFSGSGSGTDYTLTISSLQPEDFATYYCQHFWDTPYTFGQGTKVEIK | – | – | – | 684000 | 1.24 | 47.1% | – | – | – | – | – |
| Antibody 2E1_GF9 (antibody, V domains shown) VH: EVQLVESGGGLVQPGGSLRLSCAVSGYSITSGYSWNWIRQAPGKGLEWVAYISYDGNNNYNPSLKNRFTISRDTSKNTFYLQMNSLRAEDTAVYYCAREESTMITTAWFAYWGQGTLVTVSS VL: DIQMTQSPSSLSASVGDRVTITCRASETIYSNLAWYQQKPGKAPKLLIYGATNLAAGVPSRFSGSGSGTDYTLTISSLQPEDFATYYCQHFWDTPYTFGQGTKVEIK | – | – | – | 639000 | 1.14 | 46.2% | – | – | – | – | – |
| Antibody 2E1_GE11 (antibody, V domains shown) VH: EVQLVESGGGLVQPGGSLRLSCAVSGYSITSGYSWNWIRQAPGKGLEWVAYISYDGNNNYNPSLKNRFTISRDTSKNTFYLQMNSLRAEDTAVYYCAREESTMITTAWFAYWGQGTLVTVSS VL: DIQMTQSPSSLSASVGDRVTITCGASENIYSNLAWYQQKPGKAPKLLIYGATELASGVPSRFSGSGSGTDYTLTISSLQPEDFATYYCQHFWDTPYTFGQGTKVEIK | – | – | – | 658000 | 1.37 | 46.2% | – | – | – | – | – |
| Antibody 2E1_FF4 (antibody, V domains shown) VH: EVQLVESGGGLVQPGGSLRLSCAVSGYSITSGYYWNWIRQAPGKGLEWVAYISYDGNNWYNPSLKNRFTISRDTSKNTFYLQMNSLRAEDTAVYYCAREESTMITTAWFAYWGQGTLVTVSS VL: DIQMTQSPSSLSASVGDRVTITCRASENIYSNLAWYQQKPGKAPKLLIYGATNLASGVPSRFSGSGSGTDYTLTISSLQPEDFATYYCQHFWDTPYTFGQGTKVEIK | – | – | – | 462000 | 1.59 | 53.3% | 0.254 nM | 6670 RFU | – | – | – |
| Antibody 2E1_FD3 (antibody, V domains shown) VH: EVQLVESGGGLVQPGGSLRLSCAVSGYSITSGYYWNWIRQAPGKGLEWVAYISYDGNANYNPSLKNRFTISRDTSKNTFYLQMNSLRAEDTAVYYCAREESTMITTAWFAYWGQGTLVTVSS VL: DIQMTQSPSSLSASVGDRVTITCRASENIYSNLAWYQQKPGKAPKLLIYGATNLASGVPSRFSGSGSGTDYTLTISSLQPEDFATYYCQHFWDTPYTFGQGTKVEIK | – | – | – | 460000 | 1.28 | 51% | 0.232 nM | 6750 RFU | – | – | – |
| Antibody 2E1_GD9 (antibody, V domains shown) VH: EVQLVESGGGLVQPGGSLRLSCAVSGYSITSGYYWNWIRQAPGKGLEWVAYISYDGNNNYNPSLKNRFTISRDTSKNTFYLQMNSLRAEDTAVYYCAREESTMITTAWFAYWGQGTLVTVSS VL: DIQMTQSPSSLSASVGDRVTITCRASENIFSNLAWYQQKPGKAPKLLIYGATNLASGVPSRFSGSGSGTDYTLTISSLQPEDFATYYCQHFWDTPYTFGQGTKVEIK | – | – | – | 724000 | 1.39 | 52.9% | – | – | – | – | – |
| Antibody 2E1_GH6 (antibody, V domains shown) VH: EVQLVESGGGLVQPGGSLRLSCAVSGYSITSGYHWNWIRQAPGKGLEWVAYISYDGNNNYNPSLKNRFTISRDTSKNTFYLQMNSLRAEDTAVYYCAREESTMITTAWFAYWGQGTLVTVSS VL: DIQMTQSPSSLSASVGDRVTITCRASENIYSNLAWYQQKPGKAPKLLIYGATNLASGVPSRFSGSGSGTDYTLTISSLQPEDFATYYCQHFWDTPYTFGQGTKVEIK | – | – | – | 678000 | 1.26 | 46.6% | – | – | 0.596 nM | 5760 RFU | – |
| Antibody 13H5 (antibody, V domains shown, Mouse hybridoma mAb purified from ascites) VH: EIQLQQSGPELVKPGTSVKVSCKASGSSFTDYNMYWVKQSHGKSLDWIGYIDPYNGRTTYNQKFRGKATLTVDKSSSTAFMHLNSLTSEDSAVYYCARGDYFDYWGQGTSLTVSS VL: EIQMTQTTSSLSASLGDRVTISCSASQGISNYLNWFQQKPDGTVKLLIYYTSTLHSGVPSRFSGSGSGTDFSLTISNLDPEDFATYYCQQYSNLPYTFGGGTKLEIK | 1.39 nM | – | no binding (tested: 5 µg/ml) | – | – | – | – | – | – | – | no binding |
